Measured values published in PMC6859848 (2019).
Like-named read-outs stand apart in the source and are kept apart here. Values belong to the molecule of their own block, whether it stands above or below them.

Experiments:
[1] = test system: rG1 (5'-Alexa Fluor 647) (RNA, G4) ACCGGGGCAGGGGAAGAGGGGG; assay: fluorescence quenching titration; conditions: K+ 100 mM (KCl); 10 mM Tris, 5% DMSO; 100 nM RNA; single site fit; apparent
HNRNPH1 delta1-103 = target: T1, HNRNPH1 delta1-103 (UniProt P31943 104-449, del1-103); assay: SPR
T1 sequence: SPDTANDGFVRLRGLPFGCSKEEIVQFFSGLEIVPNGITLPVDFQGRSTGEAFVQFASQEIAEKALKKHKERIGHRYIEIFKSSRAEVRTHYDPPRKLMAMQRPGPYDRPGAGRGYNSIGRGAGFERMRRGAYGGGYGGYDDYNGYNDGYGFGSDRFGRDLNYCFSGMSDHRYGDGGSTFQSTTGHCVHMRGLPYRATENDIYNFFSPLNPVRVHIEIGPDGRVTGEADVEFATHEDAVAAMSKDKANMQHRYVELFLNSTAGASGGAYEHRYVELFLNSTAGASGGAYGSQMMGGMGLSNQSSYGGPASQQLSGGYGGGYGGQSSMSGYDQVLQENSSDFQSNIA

HNRNPH1 full-length [2] = target: T2, HNRNPH1 full-length (UniProt P31943 1-449); assay: SPR
T2 sequence: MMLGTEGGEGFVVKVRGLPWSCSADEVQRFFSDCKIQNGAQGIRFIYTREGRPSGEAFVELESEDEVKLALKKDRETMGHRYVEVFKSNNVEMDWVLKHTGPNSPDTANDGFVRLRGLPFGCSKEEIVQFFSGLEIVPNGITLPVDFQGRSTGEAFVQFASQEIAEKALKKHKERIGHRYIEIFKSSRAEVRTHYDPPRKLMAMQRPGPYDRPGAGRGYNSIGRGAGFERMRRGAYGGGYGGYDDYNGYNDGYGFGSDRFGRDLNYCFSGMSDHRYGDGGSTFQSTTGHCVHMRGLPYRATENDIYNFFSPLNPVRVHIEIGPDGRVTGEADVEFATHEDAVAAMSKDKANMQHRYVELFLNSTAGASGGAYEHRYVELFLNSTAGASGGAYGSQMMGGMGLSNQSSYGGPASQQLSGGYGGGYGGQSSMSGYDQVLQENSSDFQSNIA

HNRNPH1 qRRM3 = target: T3, HNRNPH1 qRRM3 (UniProt P31943 277-381); assay: SPR
T3 sequence: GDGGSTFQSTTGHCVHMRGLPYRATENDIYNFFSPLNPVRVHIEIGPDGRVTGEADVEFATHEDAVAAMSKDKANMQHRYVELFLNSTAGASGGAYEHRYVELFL

HNRNPH1 qRRM1-2 = target: T4, HNRNPH1 qRRM1-2 (UniProt P31943 1-194); assay: SPR
T4 sequence: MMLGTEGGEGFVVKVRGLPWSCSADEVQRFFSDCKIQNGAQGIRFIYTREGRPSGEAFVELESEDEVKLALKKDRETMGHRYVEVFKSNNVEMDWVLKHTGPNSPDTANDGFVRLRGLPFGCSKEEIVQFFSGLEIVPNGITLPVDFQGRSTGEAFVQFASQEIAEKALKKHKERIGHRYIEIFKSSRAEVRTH

HNRNPH1 qRRM2 = target: T5, HNRNPH1 qRRM2 (UniProt P31943 103-194); assay: SPR
T5 sequence: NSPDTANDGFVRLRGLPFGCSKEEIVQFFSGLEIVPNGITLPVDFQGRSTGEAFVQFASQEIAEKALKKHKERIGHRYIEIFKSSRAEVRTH

[3] = target: T6, HNRNPH1 qRRM2-3 (qRRM2-GYR-qRRM3) (UniProt P31943 103-381); assay: SPR
T6 sequence: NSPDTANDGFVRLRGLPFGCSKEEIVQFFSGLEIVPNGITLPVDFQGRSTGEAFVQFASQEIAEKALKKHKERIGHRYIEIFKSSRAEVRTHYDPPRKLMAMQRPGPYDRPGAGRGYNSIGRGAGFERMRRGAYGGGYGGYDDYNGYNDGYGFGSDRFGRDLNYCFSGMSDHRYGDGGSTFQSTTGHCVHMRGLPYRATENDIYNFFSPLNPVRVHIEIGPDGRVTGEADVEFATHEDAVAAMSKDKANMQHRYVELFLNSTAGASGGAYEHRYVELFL

HNRNPH1 qRRM1 = target: T7, HNRNPH1 qRRM1 (UniProt P31943 1-102); assay: SPR
T7 sequence: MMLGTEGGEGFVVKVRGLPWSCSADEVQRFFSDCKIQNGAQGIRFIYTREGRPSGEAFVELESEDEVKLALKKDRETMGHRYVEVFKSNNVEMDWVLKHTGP

HNRNPH1 full-length [4] = target: T2, HNRNPH1 full-length; assay: competition
HNRNPH1 full-length [5] = target: T2, HNRNPH1 full-length; assay: EMSA
HNRNPH1 full-length [6] = target: T2, HNRNPH1 full-length; assay: EMSA; remark: listed apart in the source
HNRNPH1 full-length [7] = target: T2, HNRNPH1 full-length; assay: antibody-based RNA binding assay

KD^app [1]: 4600 nM
Molecule: NCCOc1cc(C(=O)Nc2cc(OCCN)c3ccccc3n2)nc(C(=O)Nc2cc(OCCN)c3ccccc3n2)c1

Molecule: ACCGGGGCAGGGGAAGAGGGGG (structured_RNA) [rG1 5'-biotin (SPR)]
Kd (HNRNPH1 delta1-103): 2.4 nM
Kd (HNRNPH1 full-length [2]): 4.8 nM
Kd (HNRNPH1 qRRM3): 315 nM
Kd (HNRNPH1 qRRM1-2): 1.5 nM
Kd (HNRNPH1 qRRM2): 22 nM
Kd [3]: 97 nM
Kd (HNRNPH1 qRRM1): 30 nM

Molecule: ACCGGGGCAGGGGAAGAGGGGGAUU (structured_RNA) [rG1 nonbiotinylated competitor]
IC50 (HNRNPH1 full-length [4]): 84 nM

Molecule: GAUCGUGGAGGCAUGAGCAGAGGUG (ssRNA) [Linker]
binding result (HNRNPH1 full-length [5]): no binding

Molecule: AGCAGAGGUGGGCGGGGAGGAGGAC (ssRNA) [rG2a]
binding result (HNRNPH1 full-length [6]): binds

Molecule: GUGGGCGGGGAGGAGGACGCGGUGGAAU (ssRNA) [rG2b]
binding result (HNRNPH1 full-length [6]): binds

Molecule: ACCGGGGCAGGGGAAGAGGGGGAUU (structured_RNA) [rG1 3'-biotin]
Kd (HNRNPH1 full-length [7]): 30 ± 2 nM
